Results on five molecules are retold here after article PMC2665239 (Nucleic Acids Research, 2009).

For one series, the target named is T1, ttPHP domain (Thermus thermophilus HB8, UniProt Q5SJ64 339-575).
T1 sequence: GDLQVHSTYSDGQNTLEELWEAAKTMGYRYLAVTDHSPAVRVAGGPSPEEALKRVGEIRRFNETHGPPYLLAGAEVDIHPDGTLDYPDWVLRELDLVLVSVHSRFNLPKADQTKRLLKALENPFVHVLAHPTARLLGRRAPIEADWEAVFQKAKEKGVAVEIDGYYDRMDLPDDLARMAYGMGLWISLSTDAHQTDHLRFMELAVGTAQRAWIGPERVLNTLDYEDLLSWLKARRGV
As to the kind of experiment: EMSA. Background: In EMSA bound probe runs differently from free probe, usually more slowly.

In series [1] the target is T2, ttPOLXc domain (Thermus thermophilus HB8, UniProt Q5SJ64 1-379).
T2 sequence: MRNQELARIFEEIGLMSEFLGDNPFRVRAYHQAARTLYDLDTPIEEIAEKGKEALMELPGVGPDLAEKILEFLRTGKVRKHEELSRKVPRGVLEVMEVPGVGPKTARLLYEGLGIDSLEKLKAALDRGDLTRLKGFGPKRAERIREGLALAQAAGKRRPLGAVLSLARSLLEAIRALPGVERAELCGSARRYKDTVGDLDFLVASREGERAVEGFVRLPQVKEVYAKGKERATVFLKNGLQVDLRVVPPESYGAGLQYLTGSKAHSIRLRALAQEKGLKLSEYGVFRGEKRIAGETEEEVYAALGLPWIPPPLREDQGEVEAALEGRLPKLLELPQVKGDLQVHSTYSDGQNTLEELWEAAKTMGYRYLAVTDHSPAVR
The series can be described thus: EMSA.

Series [2] has as its target T3, ttPolX (Thermus thermophilus HB8, UniProt Q5SJ64 1-575).
T3 sequence: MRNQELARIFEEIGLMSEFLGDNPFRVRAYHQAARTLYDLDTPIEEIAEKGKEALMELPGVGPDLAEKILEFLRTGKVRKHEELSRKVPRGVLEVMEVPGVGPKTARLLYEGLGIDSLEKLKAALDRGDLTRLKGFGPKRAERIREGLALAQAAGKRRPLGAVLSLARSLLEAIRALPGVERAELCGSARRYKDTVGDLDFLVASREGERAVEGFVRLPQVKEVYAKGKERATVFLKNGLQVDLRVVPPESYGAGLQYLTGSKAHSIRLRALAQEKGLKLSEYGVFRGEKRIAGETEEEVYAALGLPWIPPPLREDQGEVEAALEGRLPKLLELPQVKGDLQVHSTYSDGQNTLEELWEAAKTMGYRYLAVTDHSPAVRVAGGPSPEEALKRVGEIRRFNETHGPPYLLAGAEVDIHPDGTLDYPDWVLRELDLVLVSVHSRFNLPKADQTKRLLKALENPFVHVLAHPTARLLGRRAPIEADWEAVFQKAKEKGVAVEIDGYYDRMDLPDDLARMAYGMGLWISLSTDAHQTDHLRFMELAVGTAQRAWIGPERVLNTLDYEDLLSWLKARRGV
The series can be described thus: EMSA.

For series [3], the target named is T2, ttPOLXc domain. The series can be described thus: EMSA. This is another data set of the same source.
The target of series [4] is T3, ttPolX. The series can be described thus: EMSA. This is another data set of the same source.
Series [5] deals with T3, ttPolX. As to the kind of experiment: EMSA. The source holds these as a separate data set.
Series [6] addresses T2, ttPOLXc domain. The series can be described thus: EMSA. The source holds these as a separate data set.
In series [7] the target is T3, ttPolX. The series can be described thus: EMSA. The source holds these as a separate data set.
In series [8] the target is T2, ttPOLXc domain. As to the kind of experiment: EMSA. The source holds these as a separate data set.
The target in series [9] is T4, His-tagged ttPOLXc domain (N-terminal domain of ttPolX, residues 1-379) (Thermus thermophilus HB8, UniProt Q5SJ64 1-379).
T4 sequence (looked up): T2 sequence
As to the kind of experiment: SEC. On the technique in general: In gel filtration, larger molecules generally elute earlier.

Where two headings read alike, the source gives them in different places.

By Kd is commonly meant the concentration at which binding is half-saturated. A high value points to lower affinity.

Take CACTGGCGGTCGTTCTATCGGGTGTTGCTTTAGTTGTCAT (ssDNA) [40T ssDNA]: the binding result with ttPHP domain is given as “no binding”. The Kd with ttPOLXc domain [1] is 5.5 ± 1.7 µM; in the series with ttPolX [2], 1.2 ± 0.7 µM.

B1: 21F/40T/P18G 5'-phosphorylated 1-nt gapped DNA (dsDNA)
DNA 1: CACTGGCGGTCGTTCTATCGGGTGTTGCTTTAGTTGTCAT
DNA 2: ATGACAACTAAAGCAACACCC
DNA 3: ATAGAACGACCGCCAGTG
modifications: 5'-phosphate on 18G (P18G)
Turning to B1, the binding result with ttPHP domain was “no binding”. In addition, the results for the Kd with ttPOLXc domain [3] and with ttPolX [4] were 4.8 ± 2.5 µM and 0.3 ± 0.18 µM, respectively.

B2: 40T/40C dsDNA (dsDNA)
DNA 1: B1 DNA 1
DNA 2: ATGACAACTAAAGCAACACCCGATAGAACGACCGCCAGTG
For the molecule B2, the binding result in the series with ttPHP domain was “no binding”. The values for the Kd with ttPolX [5] and with ttPOLXc domain [6] were 1.2 ± 0.7 µM and 9.3 ± 3.8 µM, respectively.

B3: 21F/40T/18G 1-nt gapped DNA (dsDNA)
DNA 1: B1 DNA 1
DNA 2: ATGACAACTAAAGCAACACCC
DNA 3: ATAGAACGACCGCCAGTG
Turning to B3, the binding result in the series with ttPHP domain is “no binding”. The Kd with ttPolX [7] amounted to 0.39 ± 0.15 µM; in the series with ttPOLXc domain [8], 6.5 ± 2.5 µM.

B4: His-tagged ttPHP domain (C-terminal domain of ttPolX, residues 339-575) (domain or fragment, Thermus thermophilus HB8, UniProt Q5SJ64 339-575, looked up)
chain: T1 sequence
Take B4: the “stoichiometry N” value in series [9] is 1 ttPOLXc:ttPHP molar ratio.
